The values below come from article PMC9458431, “2′-O-Methylation of the second transcribed nucleotide within the mRNA 5′ cap impacts the protein production level in a cell-specific manner and contributes to RNA immune evasion”.

Common to all, as to details: protein: recombinant
In data set [1] the target is T1, eIF4E (murine) (Mus musculus, UniProt P63073 28-217). Put plainly: MST competition; vs m7Gp5OC3(5)FAM; as cap0(A); MST: 50 mM HEPES-KOH pH 7.2, 100 mM KCl, 0.5 mM EDTA, 0.05% Tween-20, 25 C, 50 nM eIF4E, 10 nM probe; pull-down: 20 mM Tris-HCl pH 7.4, 150 mM NaCl, 2 mM MgCl2, 2 mM DTT, 0.2% IGEPAL, 4 C.
T1 sequence (P63073 28-217): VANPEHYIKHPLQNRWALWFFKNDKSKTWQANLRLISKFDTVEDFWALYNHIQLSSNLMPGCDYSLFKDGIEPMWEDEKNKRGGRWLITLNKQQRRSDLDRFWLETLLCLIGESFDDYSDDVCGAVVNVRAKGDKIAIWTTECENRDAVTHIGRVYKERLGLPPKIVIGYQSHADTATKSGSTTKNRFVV
In data set [2] the target is T1, eIF4E (murine). Kind of data set: MST competition; vs 10 nM m7Gp5OC3(5)FAM; KD,app only in figure; MST: 50 mM HEPES-KOH pH 7.2, 100 mM KCl, 0.5 mM EDTA, 0.05% Tween-20, 25 C, 50 nM eIF4E, 10 nM probe; pull-down: 20 mM Tris-HCl pH 7.4, 150 mM NaCl, 2 mM MgCl2, 2 mM DTT, 0.2% IGEPAL, 4 C.
Data set [3] deals with T1, eIF4E (murine). Put plainly: MST competition; vs m7Gp5OC3(5)FAM; not destabilized by m6A; MST: 50 mM HEPES-KOH pH 7.2, 100 mM KCl, 0.5 mM EDTA, 0.05% Tween-20, 25 C, 50 nM eIF4E, 10 nM probe; pull-down: 20 mM Tris-HCl pH 7.4, 150 mM NaCl, 2 mM MgCl2, 2 mM DTT, 0.2% IGEPAL, 4 C.

As for AGGGGAAGCGGGCAUGCGGCCAGCCA (ssRNA, m7Gppp-AmpGm (2'-O-Me at nt 1 and 2)) [cap2(A) RNA], in the data set with eIF4E (murine) [1], the binding result is on record as “binds”.
The same measure, in the same setting: in the case of AGGGGAAGCGGGCAUGCGGCCAGCCA (ssRNA, m7Gppp-ApGm (2'-O-Me at nt 2 only)) [cap2-1(A) RNA] it was “binds”; in that of AGGGGAAGCGGGCAUGCGGCCAGCCA (ssRNA, m7Gppp-Am (2'-O-Me at nt 1)) [cap1(A) RNA], “binds”.
In the case of AGGGGAAGCGGGCAUGCGGCCAGCCA (ssRNA, m7Gppp-A) [cap0(A) RNA], the binding result with eIF4E (murine) [2] is “binds”.
Take AGGGGAAGCGGGCAUGCGGCCAGCCA (ssRNA, m7Gppp-m6ApGm) [cap2-1(m6A) RNA]: the binding result with eIF4E (murine) [3] was “binds”.
